Test results published in patent US20220267475A1 (published 2022).

T1: TIGIT antigen expressed on CHO-K1 cells (UniProt Q495A1 22-244)
T1 chain: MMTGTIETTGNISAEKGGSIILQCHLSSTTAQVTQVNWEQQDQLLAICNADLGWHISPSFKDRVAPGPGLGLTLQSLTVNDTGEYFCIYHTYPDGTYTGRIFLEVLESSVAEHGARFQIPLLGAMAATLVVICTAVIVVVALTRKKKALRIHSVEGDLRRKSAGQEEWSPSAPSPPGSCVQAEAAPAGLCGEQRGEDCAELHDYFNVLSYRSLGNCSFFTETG


Columns and labels:
[1] = biological target: T1, TIGIT antigen expressed on CHO-K1 cells; test: flow cytometry
[2] = biological target: CD47 antigen expressed on CHO-K1 cells (UniProt Q08722 19-323); test: flow
Chain of CD47 antigen expressed on CHO-K1 cells (Q08722 19-323): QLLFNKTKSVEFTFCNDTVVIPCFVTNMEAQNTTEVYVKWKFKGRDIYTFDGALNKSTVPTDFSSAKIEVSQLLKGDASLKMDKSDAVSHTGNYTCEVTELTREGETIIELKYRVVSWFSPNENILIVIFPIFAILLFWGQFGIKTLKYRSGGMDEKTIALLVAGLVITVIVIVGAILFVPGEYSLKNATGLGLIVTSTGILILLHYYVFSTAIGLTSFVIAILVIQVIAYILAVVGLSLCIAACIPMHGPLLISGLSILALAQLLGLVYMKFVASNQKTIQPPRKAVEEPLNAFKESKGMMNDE

| Binder | EC50 [1] [nM] | EC50 [2] [nM] |
| --- | --- | --- |
| TIGIT-G9-HC (bispecific antibody) heavy: not shown light: EIVLTQSPATLSLSPGERATLSCRASENVGTYISWYQQKPGQAPRLLIYGASNRYTGIPARFSGSGSGTDFTLTISSLEPEDFAVYYCGESYGHLYTFGGGTKVEIKRTVAAPSVFIFPPSDEQLKSGTASVVCLLNNFYPREAKVQWKVDNALQSGNSQESVTEQDSKDSTYSLSSTLTLSKADYEKHKVYACEVTHQGLSSPVTKSFNRGEC | 0.429 | 0.686 |
| TIGIT-E-HC (bispecific antibody) heavy: not shown light: EIVLTQSPATLSLSPGERATLSCRASENVGTYISWYQQKPGQAPRLLIYGASNRYTGIPARFSGSGSGTDFTLTISSLEPEDFAVYYCGESYGHLYTFGGGTKVEIKRTVAAPSVFIFPPSDEQLKSGTASVVCLLNNFYPREAKVQWKVDNALQSGNSQESVTEQDSKDSTYSLSSTLTLSKADYEKHKVYACEVTHQGLSSPVTKSFNRGEC | 0.52 |  |
| anti-CD47 monoclonal antibody (antibody, V domains shown) VH: EVQLVQSGAEVKKPGSSVKVSCKASGYSFTHHWIHWVRQAPGQGLEWMGMIDASDSETRLSQKFKDRVTITADKSTSTAYMELSSLRSEDTAVYYCARLGRYYFDYWGQGTTVTVSS VL: EIVLTQSPATLSLSPGERATLSCRASENVGTYISWYQQKPGQAPRLLIYGASNRYTGIPARFSGSGSGTDFTLTISSLEPEDFAVYYCGESYGHLYTFGGGTKVEIKR | ~0.443 | 0.00843 |
| TIGIT-G9-LC (bispecific antibody) heavy: not shown light: EIVLTQSPATLSLSPGERATLSCRASENVGTYISWYQQKPGQAPRLLIYGASNRYTGIPARFSGSGSGTDFTLTISSLEPEDFAVYYCGESYGHLYTFGGGTKVEIKRTVAAPSVFIFPPSDEQLKSGTASVVCLLNNFYPREAKVQWKVDNALQSGNSQESVTEQDSKDSTYSLSSTLTLSKADYEKHKVYACEVTHQGLSSPVTKSFNRGECGGGGSGGGSEVQLVESGGGLVQPGGSLRLSCAASGYKYGVYSMGWFRQAPGKGLEGVSAICSGGRTTYSDSVKGRFTISRDNSNQILYLQMNSLRAEDTAVYYCAARPLWTGDCDLSSSWYKTWGQGTLVTVSS | 0.658 |  |

Now those with a lower EC50 [1], led by results:

| EC50 [1] [nM] | EC50 [2] [nM] | Binder |
| --- | --- | --- |
| 0.0757 |  | TIGIT-E-LN (bispecific antibody) heavy: not shown light: EVQLVESGGGLVQPGGSLRLSCAASGYKYGVYSMGWFRQAPGKGLEGVSAICSGGRTTYSDSVKGRFTISRDNSNQILYLQMNSLRAEDTAVYYCAARPLWTGDCDLSSSWYKTWGQGTLVTVSSEPKSSDKTHTSPPSPEIVLTQSPATLSLSPGERATLSCRASENVGTYISWYQQKPGQAPRLLIYGASNRYTGIPARFSGSGSGTDFTLTISSLEPEDFAVYYCGESYGHLYTFGGGTKVEIKRTVAAPSVFIFPPSDEQLKSGTASVVCLLNNFYPREAKVQWKVDNALQSGNSQESVTEQDSKDSTYSLSSTLTLSKADYEKHKVYACEVTHQGLSSPVTKSFNRGEC |
| 0.155 |  | TIGIT-G9-LN (bispecific antibody) heavy: not shown light: EVQLVESGGGLVQPGGSLRLSCAASGYKYGVYSMGWFRQAPGKGLEGVSAICSGGRTTYSDSVKGRFTISRDNSNQILYLQMNSLRAEDTAVYYCAARPLWTGDCDLSSSWYKTWGQGTLVTVSSGGGGSGGGSEIVLTQSPATLSLSPGERATLSCRASENVGTYISWYQQKPGQAPRLLIYGASNRYTGIPARFSGSGSGTDFTLTISSLEPEDFAVYYCGESYGHLYTFGGGTKVEIKRTVAAPSVFIFPPSDEQLKSGTASVVCLLNNFYPREAKVQWKVDNALQSGNSQESVTEQDSKDSTYSLSSTLTLSKADYEKHKVYACEVTHQGLSSPVTKSFNRGEC |
| 0.168 | 0.852 | TIGIT-G9-HN (bispecific antibody) heavy: not shown light: EIVLTQSPATLSLSPGERATLSCRASENVGTYISWYQQKPGQAPRLLIYGASNRYTGIPARFSGSGSGTDFTLTISSLEPEDFAVYYCGESYGHLYTFGGGTKVEIKRTVAAPSVFIFPPSDEQLKSGTASVVCLLNNFYPREAKVQWKVDNALQSGNSQESVTEQDSKDSTYSLSSTLTLSKADYEKHKVYACEVTHQGLSSPVTKSFNRGEC |
| 0.132 | 0.65 | TIGIT-E-HN (bispecific antibody) heavy: not shown light: EIVLTQSPATLSLSPGERATLSCRASENVGTYISWYQQKPGQAPRLLIYGASNRYTGIPARFSGSGSGTDFTLTISSLEPEDFAVYYCGESYGHLYTFGGGTKVEIKRTVAAPSVFIFPPSDEQLKSGTASVVCLLNNFYPREAKVQWKVDNALQSGNSQESVTEQDSKDSTYSLSSTLTLSKADYEKHKVYACEVTHQGLSSPVTKSFNRGEC |
| 0.334 |  | TIGIT-E-LC (bispecific antibody) heavy: not shown light: EIVLTQSPATLSLSPGERATLSCRASENVGTYISWYQQKPGQAPRLLIYGASNRYTGIPARFSGSGSGTDFTLTISSLEPEDFAVYYCGESYGHLYTFGGGTKVEIKRTVAAPSVFIFPPSDEQLKSGTASVVCLLNNFYPREAKVQWKVDNALQSGNSQESVTEQDSKDSTYSLSSTLTLSKADYEKHKVYACEVTHQGLSSPVTKSFNRGECEPKSSDKTHTSPPSPEVQLVESGGGLVQPGGSLRLSCAASGYKYGVYSMGWFRQAPGKGLEGVSAICSGGRTTYSDSVKGRFTISRDNSNQILYLQMNSLRAEDTAVYYCAARPLWTGDCDLSSSWYKTWGQGTLVTVSS |
